Assay results reported in the supplement of paper PMC9170038.

Tests used:
MS2 coat protein [1] = assay: apparent KD of MS2 coat protein, switch ON state; designed switch direction (-1 OFF switch, 1 ON switch): -1; higher = weaker reporter binding; conditions: FMN input: 0 or 200 uM; Eterna round: R93 (includes R88 designs)
Procedure, shortened: (§1)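 SNAP-549-labelled MS2 coat protein was titrated onto designed RNA switches that had been transcribed on-chip from Illumina sequencing clusters. Amounts doubled from 0.7 or 1.5 nM to 3 µM in 100 mM Tris-HCl pH 7.5, 80 mM KCl, 4 mM MgCl2, with constant ligand or without. Apparent KD is the median per design of normalised cluster binding-curve fits.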

MS2 coat protein [2] = assay: apparent KD of MS2 coat protein, switch OFF state (with FMN for OFF switches, without FMN for ON switches); designed switch direction (-1 OFF switch, 1 ON switch): -1; higher = weaker reporter binding; conditions: FMN input: 0 or 200 uM; Eterna round: R93 (includes R88 designs)
Procedure, shortened: as §1

MS2 coat protein [3] = assay: apparent KD of MS2 coat protein; designed switch direction (-1 OFF switch, 1 ON switch): 1; higher = weaker reporter binding
Procedure, shortened: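 Designed RNA switches with common flanks were transcribed on Illumina chips by stalled E. coli RNA polymerase and titrated with SNAP-549-labelled MS2 coat protein, from 0.7 or 1.5 nM doubling to 3 µM, in Tris-HCl pH 7.5 buffer with KCl, MgCl2, BSA, DTT, tRNA and Tween-20. Steps lasted 0.8–1.5 h (lowest) to 10–20 min (highest). Titrations ran without input, with 200 uM small-molecule ligand, or with an oligonucleotide input. Normalised cluster fluorescence was curve-fitted, and apparent KD is the per-design median over clusters.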

[4] = input ligand: microRNA oligo, concentration not stated
[5] = Eterna round: R95, input ligand: FMN 200 uM
[6] = Eterna round: R95, input ligand: microRNA oligo, concentration not stated
[7] = Eterna round: R95, input ligand: none

Sequence | apparent KD of MS2 coat protein (MS2 coat protein [1]) [nM] | apparent KD of MS2 coat protein (MS2 coat protein [2]) [nM] | apparent KD of MS2 coat protein (MS2 coat protein [3]; [4]) [nM] | other results
AAAAGACAUGAGGAUCACCCAUGUCAGGAUAUGACUUGAAAAAAAAAAAAAAAACAUGUCAGAAGGGACAUGAA [Design 45: Sub-opt D] | 20.6 | 19.6 |  | 
GAAAAGUUAGGAUAUACAGAUAAAAAAACGAAAAAAAAUCUGUAGAAGGAACAUGAGGAUCACCCAUGUAAAAG [Mat - Exclusion 4 - Mayanna - D103] | 34.7 | 30.8 |  | 
AAAAAGUGAGGAUAUGUCAAAGGUCACGAAAGUGACAAAGGACAGAAGGCACAUGAGGAUCACCCAUGUAAAAA [Fiskers Exclusion 4D1 65% - Early G segment 1] | 37.4 | 43.6 |  | 
AGCUAGUGAGGAUAUACGAACAUGUCAAAAGACGUGAAGAAACAUGAGGAUCACCCAUGUAGAAGGCACUAGCA [Mat - Exclusion 2 - JL-Eli mod - D55] | 15.5 | 14.9 |  | 
ACGUCGGGAGGAUAUACAUGAGGAUCACCCAUGUAAAGCGGGAAAGACGUUUAGUCGAGUAGAAGGCCUGAAGU [JR_Exc003_Sub1709] | 26.1 | 45.5 |  | 
AAAUAGUUAGGAUAUACAUGAGGAUCACCCAUGUGCACUUAUGGAGAAUAGUGUAAUGGUAGAAGGGACUAAAA [EX2 Malc#23] | 82.1 | 94.6 |  | 
AAAAAACAUGAGGAUCACCCAUGUGAGGAUAUGACGUAAAUAAAGAAAGAAGAAAUCGUCAGAAGGCACACCUA [Disincluded 2 (MS2 Riboswitches)] | 25.7 | 45.7 |  | 
ACAAGAUCAGGAUAUACAUGAGGAUCACCCAUGUAUAUCAAAAAGGGACUUACUUAAUGUAGAAGGGAUCAUGU [EX3 280: Random 16] | 12.7 | 13.9 |  | 
AAAAAGUGAGGAUAUGGUAAAAAAAAAAAAAAAAAAAACCUCCAGAAGGCACAUGAGGAUCACCCAUGUAAAAA [Jolly's Folly 2 - Jieux - Exclusion 4] | 75.8 | 34.6 |  | 
GAAUGACUAGGAUAUACAUGAGGAUCACCCAUGUGUAUAAAUAAAUACACAAAAGAAAGUAGAAGGAGUCAAAG [Mat - Exclusion 3 - Mayanna mod - D124] | 20.8 | 83.2 |  | 
AAAAGGAAAGGAUAUGCAGACUGGGUCACCCAGAUGUAUGAACAUGAGGAUCACCCAUGUAGAAGGUUCAAAAG [Ribiquon] | 36.6 | 26.5 |  | 
GAAAAGGCAGGAUAUGCAAGGAUAUAGAAGGAAAAAAAAAAACAUGAGGAUCACCCAUGUAGAAGGGCCAAAAG [salish99-ex2-10] | 57.2 | 33.5 |  | 
AGAAAACAUGAGGAUCACCCAUGUGAGGAUAUCGAAAAGAAAAGAAAAGAAAGAAGAAUGAGAAGGCACAAGAA [Khaba] | 29.5 | 28.1 |  | 
AAAUAGCAAGGAUAUACAUGAGGAUCACCCAUGUGAAAAAGAUAUGGAAUAGAAUAGAGUAGAAGGUGCAAAUA [Ex 3 Tesla 8] | 40.4 | 54.1 |  | 
AAGAAACGAGGAUAUACAAAAUAAAAGAAAAGAAAGAAAGAACAUGAGGAUCACCCAUGUAGAAGGCGUAAGAA [Wahibre Ibiau] | 44.6 | 30.3 |  | 
CGGGUGAUCGUAGGAUAUCUAGGAUAUGAACGAGGAUCACCCGAGCAGCAUCAGCGCAUCAGAGGAGAGAAGGACGAUCAUGCG [pwkr ssNG2 2F5 2FMN.7] (Eterna round: R96, puzzle: Same State NG 2) |  |  | 12.9 | apparent KD of MS2 coat protein (MS2 coat protein [3]; input ligand: FMN 200 uM): 326 nM; apparent KD of MS2 coat protein (MS2 coat protein [3]; input ligand: none): 59.1 nM
CCCGCGUUUCGCGCCUACAUGAGGAUCACCCAUGUUUGUAGGCAGGAUAUCGUCCGCUCUGCGGGCGAGAAGGGCUGUUGUGGU [salish99_SSNG3_R04_029] (Eterna round: R96, puzzle: Same State NG 3) |  |  | 72.9 | 

Sequence | apparent KD of MS2 coat protein (MS2 coat protein [1]) [nM] | apparent KD of MS2 coat protein (MS2 coat protein [2]) [nM] | apparent KD of MS2 coat protein (MS2 coat protein [3]; [4]) [nM] | other results
CGUCCAGCCUGAGCUGGACAAAAGCAUGUACAUGAGGAUCACCCAUGUUCAUGUACAAGCUUUUUGCUCGUCUUACC [salish99_208a_r3_094x] (puzzle: Sensor for hsa-mir-208a) |  |  |  | apparent KD of MS2 coat protein (MS2 coat protein [3]; [5]): 638 nM; apparent KD of MS2 coat protein (MS2 coat protein [3]; [6]): 15.9 nM; apparent KD of MS2 coat protein (MS2 coat protein [3]; [7]): 1010 nM
GGAUGAUUGACAGGAUAUCAUUUGUAAAUUCGUUGAGAAGGGUCGAUUACUUACACGACGUGUUACAUGAGGAUCACCCAUGUU [SameState NG1 #4] (Eterna round: R96, puzzle: Same State NG 1) |  |  | 101 | apparent KD of MS2 coat protein (MS2 coat protein [3]; input ligand: FMN 200 uM): 117 nM; apparent KD of MS2 coat protein (MS2 coat protein [3]; input ligand: none): 185 nM
UAGCGCUGUCGAGAGGAUAUGCGGUGAUGGACAUGAGGAUCACCCAUGUUAGCGAUAGCAUUACGGUAGAAGGCUCUACAGCUGC [salish99_ss2_r3_092] (puzzle: Same State 2) |  |  |  | apparent KD of MS2 coat protein (MS2 coat protein [3]; [6]): 23.2 nM
UGGCUCAGACGAGGAUAUGAUCAUGGCGCUUCGGCGCAUACAUGAGGAUCACCCAUGUAAAGUGAUCAGAAGGCGUCUGAGCCU [SSNG2/7-A3] (Eterna round: R96, puzzle: Same State NG 2) |  |  | 11.1 | apparent KD of MS2 coat protein (MS2 coat protein [3]; input ligand: FMN 200 uM): 14.8 nM; apparent KD of MS2 coat protein (MS2 coat protein [3]; input ligand: none): 15 nM
AGAGAACAUGAGGAUCACCCAUGUGGGAGAAACAUAGGAUAUAGGAGAGAGAGGGAGGAGCUAGAAGGAUGAUGGA [JR_SS1_Sub082] (puzzle: Same State 1) |  |  |  | apparent KD of MS2 coat protein (MS2 coat protein [3]; [5]): 80.5 nM; apparent KD of MS2 coat protein (MS2 coat protein [3]; [6]): 91.1 nM; apparent KD of MS2 coat protein (MS2 coat protein [3]; [7]): 105 nM
UUGAGGUGUCAAGGAUAUGCUACCGUUUCGGUAGCAGAAGGUGAUCACAUGAGGAUCACCCAUGUAUGCAUGCGUGAGCGUGCU [JL SSNG1 3.61] (Eterna round: R96, puzzle: Same State NG 1) |  |  | 23.4 | 
CAAACUUAGUAGGGUAGGUACCCAGGACGACAUGAGGAUCACCCAUGUAAGAGCUUUUUGCUCGUCGUCAACAGUUG [JR_SHM208a_Sub019] (puzzle: Sensor for hsa-mir-208a) |  |  |  | apparent KD of MS2 coat protein (MS2 coat protein [3]; [5]): 19.8 nM; apparent KD of MS2 coat protein (MS2 coat protein [3]; [6]): 22.5 nM; apparent KD of MS2 coat protein (MS2 coat protein [3]; [7]): 19.8 nM
UUUAGUUGCGGGCAGGAUAUGUAUUAAAAUACAUGAGGAUCACCCAUGUGCGGGUAUAACACCCGAUAGAAGGGCCAAUCGCGAC [Laonerce - 11] (puzzle: Same State 2) |  |  |  | apparent KD of MS2 coat protein (MS2 coat protein [3]; [5]): 20.9 nM; apparent KD of MS2 coat protein (MS2 coat protein [3]; [6]): 53.6 nM; apparent KD of MS2 coat protein (MS2 coat protein [3]; [7]): 71.9 nM
ACAUAGGUUUCAGGAUAUGGGUAAAUUCCCAACAUGAGGAUCACCCAUGUCCGUAGGGAUAACAUCCAGAAGGGAAGCCACAUA [MOD Eternabot Solution 1 (Score 87.5)] (Eterna round: R96, puzzle: Same State NG 2) |  |  | 100 | apparent KD of MS2 coat protein (MS2 coat protein [3]; input ligand: FMN 200 uM): 89.3 nM; apparent KD of MS2 coat protein (MS2 coat protein [3]; input ligand: none): 59.4 nM
AGCUAUGGAAAACUAUAGCAAAAGUAUGUACAUGAGGAUCACCCAUGUCAUGUACAAGCUUUUUGCUCGUCUUAAAA [ak 6 mod of one Eli's designs.] (puzzle: Sensor for hsa-mir-208a) |  |  |  | apparent KD of MS2 coat protein (MS2 coat protein [3]; [5]): 201 nM; apparent KD of MS2 coat protein (MS2 coat protein [3]; [6]): 18.6 nM; apparent KD of MS2 coat protein (MS2 coat protein [3]; [7]): 189 nM
AGCUAGUACCGAGGAUAUACAUACAUGAGGAUCACCCAUGUAUACAUGAAAUAAUGAGACUACAUGUAGAAGGCGGUACUAGCA [Mat - Same State NG 2 - JL mod - D45] (Eterna round: R96, puzzle: Same State NG 2) |  |  | 43.5 | apparent KD of MS2 coat protein (MS2 coat protein [3]; input ligand: FMN 200 uM): 16.9 nM; apparent KD of MS2 coat protein (MS2 coat protein [3]; input ligand: none): 63.4 nM
AGUUGUAAUACAGGAUAUAUAUUAUUUUUAUUUAUAGAAGGGUAAUCACAUGAGGAUCACCCAUGUAUAUACGAGGAAGAAGAG [JMF's solution 2] (Eterna round: R96, puzzle: Same State NG 1) |  |  | 194 | 
AUGAAGAAUUAAGGAUAUUGAUUACAUAUGUUUAACAUGAGGAUCACCCAUGUGGGUUGCGGUAUCGAGAAGGUAAAAUAAAAG [Mat - same State NG 2 - JL mod - D89] (Eterna round: R96, puzzle: Same State NG 2) |  |  | 193 | apparent KD of MS2 coat protein (MS2 coat protein [3]; input ligand: FMN 200 uM): 252 nM; apparent KD of MS2 coat protein (MS2 coat protein [3]; input ligand: none): 213 nM
GGAGCCGGUACUGAGGAUAUUCAUAUUAAAACAUGAGGAUCACCCAUGUGGGCCAGAAGGCCUUGGGAGAAGGCAGACCAGCUCG [Atgexeedri - 3] (Eterna round: R96, puzzle: Same State 2) |  |  | 108 | apparent KD of MS2 coat protein (MS2 coat protein [3]; input ligand: FMN 200 uM): 18.2 nM; apparent KD of MS2 coat protein (MS2 coat protein [3]; input ligand: none): 156 nM
GAAGGAUGAGCGUAGGAUAUAGGAGGAGUGACAUGAGGAUCACCCAUGUGGUAGGAGGGAGGGUACUAGAAGGACGAGGAAGAGG [JR_SS2_Sub069] (Eterna round: R96, puzzle: Same State 2) |  |  | 49.7 | apparent KD of MS2 coat protein (MS2 coat protein [3]; input ligand: FMN 200 uM): 102 nM; apparent KD of MS2 coat protein (MS2 coat protein [3]; input ligand: none): 84 nM
AGGAGACAUGAGGAUCACCCAUGUACUUCAUAAGGAGAGAACGAGGAUAUGUAGAGAGAGAGGGAACAGAAGGUGUGAGAGGAA [Default title] (Eterna round: R96, puzzle: Same State NG 3) |  |  | 16.2 | apparent KD of MS2 coat protein (MS2 coat protein [3]; input ligand: FMN 200 uM): 18.7 nM; apparent KD of MS2 coat protein (MS2 coat protein [3]; input ligand: none): 18.7 nM
CUAUCUACAGGUGUCUUUGCUCGUUUUAUACAUGAGGAUCACCCAUGUUAUAGCCCGGUGCUUGCGCUGGGCUGAUU [JL ViennaUCT Tearor mod 7] (puzzle: Sensor for hsa-mir-208a) |  |  |  | apparent KD of MS2 coat protein (MS2 coat protein [3]; [5]): 100 nM; apparent KD of MS2 coat protein (MS2 coat protein [3]; [6]): 15.5 nM; apparent KD of MS2 coat protein (MS2 coat protein [3]; [7]): 95.3 nM
